Results published in IntAct's records for PubMed 17293598.

B1: Complement factor H (Homo sapiens), P08603 (parent)
chain: MRLLAKIICLMLWAICVAEDCNELPPRRNTEILTGSWSDQTYPEGTQAIYKCRPGYRSLGNVIMVCRKGEWVALNPLRKCQKRPCGHPGDTPFGTFTLTGGNVFEYGVKAVYTCNEGYQLLGEINYRECDTDGWTNDIPICEVVKCLPVTAPENGKIVSSAMEPDREYHFGQAVRFVCNSGYKIEGDEEMHCSDDGFWSKEKPKCVEISCKSPDVINGSPISQKIIYKENERFQYKCNMGYEYSERGDAVCTESGWRPLPSCEEKSCDNPYIPNGDYSPLRIKHRTGDEITYQCRNGFYPATRGNTAKCTSTGWIPAPRCTLKPCDYPDIKHGGLYHENMRRPYFPVAVGKYYSYYCDEHFETPSGSYWDHIHCTQDGWSPAVPCLRKCYFPYLENGYNQNYGRKFVQGKSIDVACHPGYALPKAQTTVTCMENGWSPTPRCIRVKTCSKSSIDIENGFISESQYTYALKEKAKYQCKLGYVTADGETSGSITCGKDGWSAQPTCIKSCDIPVFMNARTKNDFTWFKLNDTLDYECHDGYESNTGSTTGSIVCGYNGWSDLPICYERECELPKIDVHLVPDRKKDQYKVGEVLKFSCKPGFTIVGPNSVQCYHFGLSPDLPICKEQVQSCGPPPELLNGNVKEKTKEEYGHSEVVEYYCNPRFLMKGPNKIQCVDGEWTTLPVCIVEESTCGDIPELEHGWAQLSSPPYYYGDSVEFNCSESFTMIGHRSITCIHGVWTQLPQCVAIDKLKKCKSSNLIILEEHLKNKKEFDHNSNIRYRCRGKEGWIHTVCINGRWDPEVNCSMAQIQLCPPPPQIPNSHNMTTTLNYRDGEKVSVLCQENYLIQEGEEITCKDGRWQSIPLCVEKIPCSQPPQIEHGTINSSRSSQESYAHGTKLSYTCEGGFRISEENETTCYMGKWSSPPQCEGLPCKSPPEISHGVVAHMSDSYQYGEEVTYKCFEGFGIDGPAIAKCLGEKWSHPPSCIKTDCLSLPSFENAIPMGEKKDVYKAGEQVTYTCATYYKMDGASNVTCINSRWTGRPTCRDTSCVNPPTVQNAYIVSRQMSKYPSGERVRYQCRSPYEMFGDEEVMCLNGNWTEPPQCKDSTGKCGPPPPIDNGDITSFPLSVYAPASSVEYQCQNLYQLEGNKRITCRNGQWSEPPKCLHPCVISREIMENYNIALRWTAKQKLYSRTGESVEFVCKRGYRLSSRSHTLRTTCWDGKLEYPTCAKR
partner: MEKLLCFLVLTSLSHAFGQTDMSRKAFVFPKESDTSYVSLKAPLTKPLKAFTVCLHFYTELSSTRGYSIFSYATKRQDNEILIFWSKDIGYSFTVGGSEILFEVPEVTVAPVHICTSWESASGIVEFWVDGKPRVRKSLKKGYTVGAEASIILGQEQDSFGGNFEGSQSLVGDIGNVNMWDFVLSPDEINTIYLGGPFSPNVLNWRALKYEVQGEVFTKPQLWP
B2: Complement factor H (Homo sapiens), P08603 (parent)
chain: B1 chain
partner: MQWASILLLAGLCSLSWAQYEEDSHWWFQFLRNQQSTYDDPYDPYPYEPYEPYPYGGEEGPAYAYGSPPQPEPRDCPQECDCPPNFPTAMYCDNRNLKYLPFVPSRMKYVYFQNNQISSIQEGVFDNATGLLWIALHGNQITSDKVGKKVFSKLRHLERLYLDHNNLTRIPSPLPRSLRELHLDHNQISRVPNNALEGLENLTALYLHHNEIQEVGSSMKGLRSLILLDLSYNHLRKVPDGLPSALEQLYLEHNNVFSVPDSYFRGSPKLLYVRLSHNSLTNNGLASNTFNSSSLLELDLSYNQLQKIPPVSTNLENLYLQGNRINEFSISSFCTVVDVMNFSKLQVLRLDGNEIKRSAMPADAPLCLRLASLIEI

Variants of: B1
Details: with crp_human CRP

| effect of a mutation on the interaction | Variant |
| --- | --- |
| decreasing interaction strength | Y402H |

Variants of: B2
Details: with fmod_bovin FMOD

| effect of a mutation on the interaction | Variant |
| --- | --- |
| decreasing interaction strength | Y402H |
